Laboratory results reported in patent US20110091994A1, “Methods for Screening Compounds for Treating and/or Preventing an Hepatitis C Virus Infection” (priority 2008, published 2011).

B1: EFEMP1 (protein, UniProt Q12805 18-493, looked up)
EGF-containing fibulin-like …: QDTEETITYTQCTDGYEWDPVRQQCKDIDECDIVPDACKGGMKCVNHYGGYLCLPKTAQIIVNNEQPQQETQPAEGTSGATTGVVAASSMATSGVLPGGGFVASAAAVAGPEMQTGRNNFVIRRNPADPQRIPSNPSHRIQCAAGYEQSEHNVCQDIDECTAGTHNCRADQVCINLRGSFACQCPPGYQKRGEQCVDIDECTIPPYCHQRCVNTPGSFYCQCSPGFQLAANNYTCVDINECDASNQCAQQCYNILGSFICQCNQGYELSSDRLNCEDIDECRTSSYLCQYQCVNEPGKFSCMCPQGYQVVRSRTCQDINECETTNECREDEMCWNYHGGFRCYPRNPCQDPYILTPENRCVCPVSNAMCRELPQSIVYKYMSIRSDRSVPSDIFQIQATTIYANTINTFRIKSGNENGEFYLRQTSPVSAMLVLVKSLSGPREHIVDLEMLTVSSIGTFRTSSVLRLTIIVGPFSF
B2: EIF4ENIF1 (protein, UniProt Q9NRA8 1-985, looked up)
Eukaryotic translation …: MDRRSMGETESGDAFLDLKKPPASKCPHRYTKEELLDIKELPHSKQRPSCLSEKYDSDGVWDPEKWHASLYPASGRSSPVESLKKELDTDRPSLVRRIVDPRERVKEDDLDVVLSPQRRSFGGGCHVTAAVSSRRSGSPLEKDSDGLRLLGGRRIGSGRIISARTFEKDHRLSDKDLRDLRDRDRERDFKDKRFRREFGDSKRVFGERRRNDSYTEEEPEWFSAGPTSQSETIELTGFDDKILEEDHKGRKRTRRRTASVKEGIVECNGGVAEEDEVEVILAQEPAADQEVPRDAVLPEQSPGDFDFNEFFNLDKVPCLASMIEDVLGEGSVSASRFSRWFSNPSRSGSRSSSLGSTPHEELERLAGLEQAILSPGQNSGNYFAPIPLEDHAENKVDILEMLQKAKVDLKPLLSSLSANKEKLKESSHSGVVLSVEEVEAGLKGLKVDQQVKNSTPFMAEHLEETLSAVTNNRQLKKDGDMTAFNKLVSTMKASGTLPSQPKVSRNLESHLMSPAEIPGQPVPKNILQELLGQPVQRPASSNLLSGLMGSLEPTTSLLGQRAPSPPLSQVFQTRAASADYLRPRIPSPIGFTPGPQQLLGDPFQGMRKPMSPITAQMSQLELQQAALEGLALPHDLAVQAANFYQPGFGKPQVDRTRDGFRNRQQRVTKSPAPVHRGNSSSPAPAASITSMLSPSFTPTSVIRKMYESKEKSKEEPASGKAALGDSKEDTQKASEENLLSSSSVPSADRDSSPTTNSKLSALQRSSCSTPLSQANRYTKEQDYRPKATGRKTPTLASPVPTTPFLRPVHQVPLVPHVPMVRPAHQLHPGLVQRMLAQGVHPQHLPSLLQTGVLPPGMDLSHLQGISGPILGQPFYPLPAASHPLLNPRPGTPLHLAMVQQQLQRSVLHPPGSGSHAAAVSVQTTPQNVPSRSGLPHMHSQLEHRPSQRSSSPVGLAKWFGSDVLQQPLPSMPAKVISVDELEYRQ
B3: FRS3 (protein, UniProt O43559 2-492, looked up)
Fibroblast growth factor …: GSCCSCLNRDSVPDNHPTKFKVTNVDDEGVELGSGVMELTQSELVLHLHRREAVRWPYLCLRRYGYDSNLFSFESGRRCQTGQGIFAFKCSRAEEIFNLLQDLMQCNSINVMEEPVIITRNSHPAELDLPRAPQPPNALGYTVSSFSNGCPGEGPRFSAPRRLSTSSLRHPSLGEESTHALIAPDEQSHTYVNTPASEDDHRRGRHCLQPLPEGQAPFLPQARGPDQRDPQVFLQPGQVKFVLGPTPARRHMVKCQGLCPSLHDPPHHNNNNEAPSECPAQPKCTYENVTGGLWRGAGWRLSPEEPGWNGLAHRRAALLHYENLPPLPPVWESQAQQLGGEAGDDGDSRDGLTPSSNGFPDGEEDETPLQKPTSTRAAIRSHGSFPVPLTRRRGSPRVFNFDFRRPGPEPPRQLNYIQVELKGWGGDRPKGPQNPSSPQAPMPTTHPARSSDSYAVIDLKKTVAMSNLQRALPRDDGTARKTRHNSTDLPL
B4: RAI14 (protein, UniProt Q9P0K7 1-980, looked up)
Ankycorbin: MKSLKAKFRKSDTNEWNKNDDRLLQAVENGDAEKVASLLGKKGASATKHDSEGKTAFHLAAAKGHVECLRVMITHGVDVTAQDTTGHSALHLAAKNSHHECIRKLLQSKCPAESVDSSGKTALHYAAAQGCLQAVQILCEHKSPINLKDLDGNIPLLLAVQNGHSEICHFLLDHGADVNSRNKSGRTALMLACEIGSSNAVEALIKKGADLNLVDSLGYNALHYSKLSENAGIQSLLLSKISQDADLKTPTKPKQHDQVSKISSERSGTPKKRKAPPPPISPTQLSDVSSPRSITSTPLSGKESVFFAEPPFKAEISSIRENKDRLSDSTTGADSLLDISSEADQQDLLSLLQAKVASLTLHNKELQDKLQAKSPKEAEADLSFDSYHSTQTDLGPSLGKPGETSPPDSKSSPSVLIHSLGKSTTDNDVRIQQLQEILQDLQKRLESSEAERKQLQVELQSRRAELVCLNNTEISENSSDLSQKLKETQSKYEEAMKEVLSVQKQMKLGLVSPESMDNYSHFHELRVTEEEINVLKQDLQNALEESERNKEKVRELEEKLVEREKGTVIKPPVEEYEEMKSSYCSVIENMNKEKAFLFEKYQEAQEEIMKLKDTLKSQMTQEASDEAEDMKEAMNRMIDELNKQVSELSQLYKEAQAELEDYRKRKSLEDVTAEYIHKAEHEKLMQLTNVSRAKAEDALSEMKSQYSKVLNELTQLKQLVDAQKENSVSITEHLQVITTLRTAAKEMEEKISNLKEHLASKEVEVAKLEKQLLEEKAAMTDAMVPRSSYEKLQSSLESEVSVLASKLKESVKEKEKVHSEVVQIRSEVSQVKREKENIQTLLKSKEQEVNELLQKFQQAQEELAEMKRYAESSSKLEEDKDKKINEMSKEVTKLKEALNSLSQLSYSTSSSKRQSQQLEALQQQVKQLQNQLAECKKQHQEVISVYRMHLLYAVQGQMDEDVQKVLKQILTMCKNQSQKK
B5: TMF1 (protein, UniProt P82094 1-1093, looked up)
TATA element modulatory factor: MSWFNASQLSSFAKQALSQAQKSIDRVLDIQEEEPSIWAETIPYGEPGISSPVSGGWDTSTWGLKSNTEPQSPPIASPKAITKPVRRTVVDESENFFSAFLSPTDVQTIQKSPVVSKPPAKSQRPEEEVKSSLHESLHIGQSRTPETTESQVKDSSLCVSGETLAAGTSSPKTEGKHEETVNKESDMKVPTVSLKVSESVIDVKTTMESISNTSTQSLTAETKDIALEPKEQKHEDRQSNTPSPPVSTFSSGTSTTSDIEVLDHESVISESSASSRQETTDSKSSLHLMQTSFQLLSASACPEYNRLDDFQKLTESCCSSDAFERIDSFSVQSLDSRSVSEINSDDELSGKGYALVPIIVNSSTPKSKTVESAEGKSEEVNETLVIPTEEAEMEESGRSATPVNCEQPDILVSSTPINEGQTVLDKVAEQCEPAESQPEALSEKEDVCKTVEFLNEKLEKREAQLLSLSKEKALLEEAFDNLKDEMFRVKEESSSISSLKDEFTQRIAEAEKKVQLACKERDAAKKEIKNIKEELATRLNSSETADLLKEKDEQIRGLMEEGEKLSKQQLHNSNIIKKLRAKDKENENMVAKLNKKVKELEEELQHLKQVLDGKEEVEKQHRENIKKLNSMVERQEKDLGRLQVDMDELEEKNRSIQAALDSAYKELTDLHKANAAKDSEAQEAALSREMKAKEELSAALEKAQEEARQQQETLAIQVGDLRLALQRTEQAAARKEDYLRHEIGELQQRLQEAENRNQELSQSVSSTTRPLLRQIENLQATLGSQTSSWEKLEKNLSDRLGESQTLLAAAVERERAATEELLANKIQMSSMESQNSLLRQENSRFQAQLESEKNRLCKLEDENNRYQVELENLKDEYVRTLEETRKEKTLLNSQLEMERMKVEQERKKAIFTQETIKEKERKPFSVSSTPTMSRSSSISGVDMAGLQTSFLSQDESHDHSFGPMPISANGSNLYDAVRMGAGSSIIENLQSQLKLREGEITHLQLEIGNLEKTRSIMAEELVKLTNQNDELEEKVKEIPKLRTQLRDLDQRYNTILQMYGEKAEEAEELRLDLEDVKNMYKTQIDELLRQSLS

molecular target: T1, HCV proteins (Hepatitis C virus genotype 1b, UniProt Q9WMX2); assay: Validation by Y2H pairwise matrices; type: binding; settings: validation of interaction with HCV protein NS3;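 also: yeast two-hybrid pairwise tests of interactions first found in Y2H screens of HCV bait proteins against human cDNA libraries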
T1 construct: expressed in transfected cells
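For IMAP Y2H IMAP1 (number of IST) in this document: yeast two-hybrid screens using HCV genotype 1b proteins fused to Gal4-DB as baits against prey cDNA libraries from human spleen and foetal brain, IMAP1 via transformation and IMAP2 via mating.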
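For IMAP Y2H IMAP2 (number of IST) in this document: yeast two-hybrid screens using HCV genotype 1b proteins fused to Gal4-DB as baits against prey cDNA libraries from human spleen and foetal brain, IMAP1 via transformation and IMAP2 via mating.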
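For Interaction with viral protein in this document: yeast two-hybrid screens using HCV genotype 1b proteins fused to Gal4-DB as baits against prey cDNA libraries from human spleen and foetal brain, IMAP1 via transformation and IMAP2 via mating.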

T1 sequence (Q9WMX2 1027-1657): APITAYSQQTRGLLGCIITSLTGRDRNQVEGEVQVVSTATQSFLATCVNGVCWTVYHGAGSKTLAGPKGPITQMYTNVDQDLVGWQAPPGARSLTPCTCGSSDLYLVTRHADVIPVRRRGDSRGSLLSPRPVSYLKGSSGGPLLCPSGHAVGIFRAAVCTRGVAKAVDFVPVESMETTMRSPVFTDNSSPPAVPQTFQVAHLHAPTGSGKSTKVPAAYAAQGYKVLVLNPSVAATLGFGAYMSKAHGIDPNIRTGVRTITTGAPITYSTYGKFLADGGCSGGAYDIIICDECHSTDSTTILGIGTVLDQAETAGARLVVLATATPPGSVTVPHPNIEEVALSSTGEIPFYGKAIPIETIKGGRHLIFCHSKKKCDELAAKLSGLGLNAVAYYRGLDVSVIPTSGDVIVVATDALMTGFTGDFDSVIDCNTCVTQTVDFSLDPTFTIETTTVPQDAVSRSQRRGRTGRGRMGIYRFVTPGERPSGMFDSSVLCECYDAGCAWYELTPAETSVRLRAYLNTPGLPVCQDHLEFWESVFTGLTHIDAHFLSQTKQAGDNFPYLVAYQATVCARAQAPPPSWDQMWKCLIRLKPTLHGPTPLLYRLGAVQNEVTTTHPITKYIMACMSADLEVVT

Row | Molecule | Y2H matrices
1 | B1 | +
2 | B2 | +
3 | B3 | +
4 | B4 | +

molecular target: T2, GST-tagged viral proteins (Hepatitis C virus genotype 1b, UniProt Q9WMX2); assay: Validation by co-affinity purification (CoAP); type: binding, HCV genotype 1b, isolate con1; parameters: key: +: IMAP validation; −: not validated; NA: non assayable due to default of protein expression or to cellular protein directly interacting with GST; settings: interaction with HCV protein NS5A
T2 construct: expressed in transfected cells; host or cells: HEK-293T
Description: C. Validation of Y2H interactions by co-affinity purification assay. Nine co-AP positive assays are shown, representing: NS5A-SORBS2 (1), NS3-CALCOCO2 (2), NS5A-BIN1 (3), NS5A-MOBK1B (4), NS5A-EFEMP1 (5), NS3-PSMB9 and NS5A-PSMB9 (6), NS5A-PPPIRI3L (7), NS3-RASAL2 (8). After pull-down with GST tagged viral baits (+) or with negative control GST alone (−), cellular preys are identified with anti-Flag antibody. Anti-GST antibody identifies either GST alone or GST-tagged viral baits. Expression of cellular preys in cell lysate is controlled by anti-Flag (bottom panel). […]
A random pool of 59 IMAP Y2H interactions was chosen for CoAP assays. Cellular ORFs (interacting domains found in Y2H screens) were cloned by recombinational cloning from a pool of human cDNA library or the MGC cDNA plasmids using KOD polymerase (Toyobo) into pDONR207 (Invitrogen). After validation by sequencing, these ORFs were transferred to pCi-neo-3xFLAG gateway-converted, and HCV ORFs were transferred into pDEST27 (GST fusion in N-term). HEK-293T cells were then co-transfected (JetPei, Polyplus) by each pair of plasmid encoding interacting proteins. Controls are GST alone against 3xFLAG-tagged preys. Two days after transfection, cells were harvested and lysed (0.5% NP-40, 20 mM Tris-HCl (pH 8.0), 180 mM NaCl, 1 mM EDTA, and complete protease inhibitor cocktail). Cell lysates were cleared by centrifugation for 20 min at 13,000 rpm at 4° C. and soluble protein complexes were purified using Glutathione Sepharose 4B beads (GE Healthcare). Beads were then washed extensively four times with lysis buffer and proteins were separated on SDS-PAGE and transferred to nitrocellulose membrane. GST-tagged viral proteins and 3xFLAG-tagged cellular proteins were detected using standard immunoblotting techniques using anti-GST (Covance) and anti-FLAG M2 (Sigma) monoclonal antibodies (21).

Row | Molecule | CoAP
5 | B1 | +
6 | B5 | −

same assay, conditions: validation of interaction with HCV protein NS3

Row | Molecule | CoAP
7 | B2 | +
8 | B3 | +
9 | B4 | −

molecular target: T3, HCV ORFs (Gal4-DB fusions) (Hepatitis C virus genotype 1b, UniProt Q9WMX2); assay: not given; type: binding, HCV genotype 1b, isolate con1; settings: HCV protein NS3 as bait; human protein as prey
T3 construct: expressed in transfected cells; host or cells: Saccharomyces cerevisiae MAV203 (IMAP1) / AH109 (IMAP2)

Row | Molecule | IMAP Y2H IMAP1 (number of IST) | IMAP Y2H IMAP2 (number of IST)
10 | B1 | 10 | 
11 | B2 | 2 | 3
12 | B3 | 2 | 1
13 | B4 | 1 | 2

same assay, conditions: HCV protein NS5A as bait; human protein as prey

Row | Molecule | IMAP Y2H IMAP2 (number of IST)
14 | B1 | 2
15 | B5 | 2

test system: HCV ORFs (Gal4-DB fusions); assay: not given; type: binding, HCV genotype 1b, isolate con1; settings: human protein listed by gene symbol; the value names the HCV protein it interacts with

Row | Molecule | Interaction with viral protein
16 | B1 | NS3 and NS5A
17 | B2 | NS3
18 | B3 | NS3
19 | B4 | NS3
20 | B5 | NS5A
